Test results from US20220112288A1 (published 2022).
Where a chain is given by its changes, count along the chain named.

Columns and labels:
[1] = target: T1, Recombinant human CD4 (R&D Systems, Cat. 10327-CD) (human, UniProt P01730 26-390, limits assumed); test: BLI (Octet Red384); purified antibody captured on anti-mouse IgG Fc (AMC) sensors; human CD4 as analyte at 100, 50 and 25 nM; 1:1 global fit
T1 construct: Bought recombinant protein; also called huCD4

[2] = target: T2, Rhesus macaque CD4-HIS (Acro Biosystems, Cat. CD4-C52H7) (rhesus macaque, UniProt P16003 26-390); test: BLI (Octet Red384); Ab on anti-mouse Fc (AMC) sensor; rhesus CD4-HIS as analyte
T2 construct: Bought reagent; also called Rhesus CD4; rhesus CD4-HIS; not shown: His tag

[3] = target: T3, Rhesus macaque CD4-HIS (Acro Biosystems, Cat. CD4-C52H7) (rhesus macaque, UniProt P16003 26-390); test: BLI (Octet Red384); purified antibody captured on anti-mouse IgG Fc (AMC) sensors, rhesus CD4-HIS analyte at 100, 50, 25 nM; global 1:1 fit
T3 construct: Bought recombinant protein; also called Rhesus CD4; rhesus CD4-HIS; not shown: His tag

B1: 75110_14P05A (antibody, V domains shown)
VH: EVQLVESGGGLVQPGGSLRLSCAASGFTFSSYDVHWVRQATGKGLEWVSTIGTAGDTYYPGSVKGRFTISRENAKNSLYLQMNSLRAGDTAVYYCARGGFYYYGMDVWGQGTTVTVSS
VL: EIVLTQSPGTLSLSPGERATLSCRASQSVSSSYLAWYQQKPGQTPRLLIYGASSRATGIPDRFSGSGSGTDFTLTISRLEPEDFAVFYCQQSGSSPFTFGPGTKVDVK
notes: Tested as AlivaMab Mouse (AMM) antibody purified from hybridoma supernatant and captured through its mouse IgG Fc; also called ADS75110 purified AMM Ab 75110_14P05A; Sib1.10
- Kd [1]: < 0.001 nM
- koff [1]: < 1e-07 s⁻¹
- kon [1]: 95000 M⁻¹ s⁻¹

B2: 75110_08H11A (antibody, V domains shown)
VH: B1 VH with V34M, F100Y, Y101S
VL: B1 VL with R24G, S32T, T44A, F87Y, S92F, V107I
notes: Tested as antibody purified from AlivaMab Mouse hybridoma supernatant (human variable domains, kappa; mouse Fc, captured on anti-mouse IgG Fc sensors); also called ADS75110 purified AMM Ab
- binding result [2]: no binding (tested: 100 nM (highest of 100, 50, 25 nM))

B3: 75110_08H06A (antibody, V domains shown)
VH: B1 VH with S31N, V34M, F100Y, Y101D
VL: B1 VL with V29I, S30T, S32I, Q38R, T44A, F87Y, S92Y, V107I
notes: as for B2
- binding result [2]: no binding (tested: 100 nM (highest of 100, 50, 25 nM))

B4: 75110_14H13A (antibody, V domains shown)
VH: B1 VH with S31N, V34M, E72K, N83I, F100D
VL: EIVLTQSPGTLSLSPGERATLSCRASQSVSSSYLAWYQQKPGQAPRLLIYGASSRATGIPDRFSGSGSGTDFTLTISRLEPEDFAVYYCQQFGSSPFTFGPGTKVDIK
notes: as for B2
- binding result [2]: no binding (tested: 100 nM (highest of 100, 50, 25 nM))

B5: 75110_14G10A (antibody, V domains shown)
VH: EVQLVESGGGLVKPGGSLRLSCAASGFTFSSYSMNWVRQAPGKGLEWVSFISSSSSYIYYADSVKGRFTISRDNAKNSLYLQMNSLRAEDTAVYYCARERGDDYGDYEGAFDIWGQGTMVTVSS
VL: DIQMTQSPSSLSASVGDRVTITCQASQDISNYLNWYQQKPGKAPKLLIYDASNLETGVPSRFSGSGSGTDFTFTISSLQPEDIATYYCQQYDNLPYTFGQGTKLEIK
notes: as for B2
- binding result [2]: no binding (tested: 100 nM (highest of 100, 50, 25 nM))

B6: 75110_14P08A (antibody, V domains shown)
VH: QVQLQESGPGLVKSSETLSLTCTDSGDSIRSYYWNWIRQPAGKGLEWIGRIYASGSTNYNPSLKSRVIMSADTSKNRFSLKLSSVTAADTAVYYCARDGGVGDSLDYWGQGTLVTVSS
VL: DIVMTQTPLSLPVTPGEPASISCRSSQSLLDSDDGNTYLDWYLQKPGQSPQLLIYTLSYRASGVPDRFSGSGSGTDFTLKISRVEAEDVGVYYCMQRIEFPFTFGPGTKVDIK
notes: Tested as AlivaMab Mouse (AMM) antibody purified from hybridoma supernatant and captured through its mouse IgG Fc; also called ADS75110 purified AMM Ab 75110_14P08A; Sib8.2
- Kd [1]: 0.33 nM
- koff [1]: 3.2e-05 s⁻¹
- kon [1]: 96000 M⁻¹ s⁻¹

B7: 75110_14P08A (antibody, V domains shown)
VH: B6 VH
VL: B6 VL
notes: Tested as antibody purified from the AlivaMab Mouse hybridoma supernatant (chimeric AlivaMab; captured by anti-mouse IgG Fc sensors, human kappa light chain); also called ADS75110 purified AMM Ab 75110_14P08A; Sib8.2
- Kd [3]: 8.8 nM
- koff [3]: 0.00066 s⁻¹
- kon [3]: 75000 M⁻¹ s⁻¹

B8: 75110_07J24A (antibody, V domains shown)
VH: QAQLQESGPGLVKPSETLSLTCTVSGGSISSYYYNWIRQPAGKGLEWIGRIYTSGRTDYNPSLKSRVTMSADTSKNQFSLKLSSVTAADTAVYYCARDEGPTDAFDIWGQGTMVTVSS
VL: B6 VL with Q51H, T75S
notes: as for B2
- binding result [2]: no binding (tested: 100 nM (highest of 100, 50, 25 nM))
